Test results from patent US9512196B2, “Short-form human MD-2 as a negative regulator of toll-like receptor 4 signaling” (Cedars-Sinai Medical Center, priority 2008, dated 2016).

Experiments:
[1] = tested on: MD-2 tyrosine phosphorylation; test: LPS-induced MD-2 tyrosine phosphorylation in HEK293 cells (immunoprecipitation, anti-phosphotyrosine immunoblot); format: cell-based, human; conditions: pretreatment 1-2 h before LPS; HEK293 cells overexpressing TLR4 and MD-2
Description: 24 h later cells were left untreated (lanes 1 and 2) or stimulated with LPS (lanes 3-7). Flag-tagged proteins were immunoprecipitated with an anti-Flag Ab in cell lysates and analyzed by SDS-PAGE and immunoblotted with an anti-phosphotyrosine Ab (top panel), or an anti-Flag Ab (middle and lower panels). (B) HEK293 cells were transiently transfected with Flag-TLR4 and Flag-MD-2 (lanes 1-5). 24 hrs later, cells were pretreated for 2 hrs with herbimycin A at 0.5 μg/ml (lane 3) or 2.5 μg/ml (lane 4), or for 1 hr with 2 μM cytochalasin D (lane 5) prior to stimulation with LPS for 5 mins.
(A) HEK293 cells were transiently transfected with TLR4 and Myc-MD-2 (lanes 1-6). […] Myc-tagged proteins were immunoprecipitated with an anti-Myc Ab in cell lysates, and analyzed by SDS-PAGE and immunoblotted with an anti-phosphotyrosine Ab (top panel), or an anti-Myc Ab (lower panel). […] Cells were left untreated or stimulated with LPS for 6 hours and luciferase activity measured in cell lysates and expressed as fold induction relative to untreated cells.
Tyrosine phosphorylation of numerous proteins is induced upon stimulation with LPS and indeed the LPS receptor, TLR4, is itself tyrosine phosphorylated. […] Proteins were immunoprecipitated from cell extracts with an anti-Flag Ab and analyzed by immunoblotting with an Ab that detects proteins phosphorylated on phosphotyrosine residues. […]

[2] = target: T1, TLR4 (Homo sapiens, UniProt O00206); test: NF-κB luciferase reporter in HEK293 cells expressing TLR4, LPS stimulation; format: cell-based; conditions: for Ability to activate NF-κB upon LPS stimulation compared to wild-type MD-2: construct transfected into HEK293 TLR4/NF-κB reporter cells, LPS 6 h; for Decrease in NF-κB activity upon LPS stimulation: versus wild-type MD-2
T1 construct: expressed in transfected cells; host or cells: HEK293
T1 sequence (O00206 24-839): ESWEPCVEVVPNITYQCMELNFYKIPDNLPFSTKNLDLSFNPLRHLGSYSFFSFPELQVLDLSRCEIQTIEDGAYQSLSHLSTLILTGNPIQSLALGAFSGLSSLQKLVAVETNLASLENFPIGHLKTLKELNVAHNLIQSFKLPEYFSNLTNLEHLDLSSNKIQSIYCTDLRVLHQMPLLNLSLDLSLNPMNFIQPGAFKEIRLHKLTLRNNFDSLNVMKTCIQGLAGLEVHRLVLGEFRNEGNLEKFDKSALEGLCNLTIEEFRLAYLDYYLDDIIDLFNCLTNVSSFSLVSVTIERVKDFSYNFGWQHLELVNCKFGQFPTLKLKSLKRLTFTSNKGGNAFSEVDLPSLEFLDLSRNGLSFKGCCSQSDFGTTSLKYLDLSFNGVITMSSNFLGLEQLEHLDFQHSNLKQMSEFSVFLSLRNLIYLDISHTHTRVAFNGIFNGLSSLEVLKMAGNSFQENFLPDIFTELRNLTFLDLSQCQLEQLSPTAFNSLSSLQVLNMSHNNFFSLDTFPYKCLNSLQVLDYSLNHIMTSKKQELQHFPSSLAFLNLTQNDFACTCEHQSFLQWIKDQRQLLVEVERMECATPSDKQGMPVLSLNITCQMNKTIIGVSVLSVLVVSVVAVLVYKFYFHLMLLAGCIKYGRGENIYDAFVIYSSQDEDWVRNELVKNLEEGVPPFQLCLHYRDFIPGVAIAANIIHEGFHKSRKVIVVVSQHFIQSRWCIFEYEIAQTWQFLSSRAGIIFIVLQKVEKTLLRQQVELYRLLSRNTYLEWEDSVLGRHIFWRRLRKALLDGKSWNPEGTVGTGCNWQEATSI
Description: (A) HEK-293 cells stably transfected with TLR4 and a NF-κB reporter gene were treated with supernatants containing either MD-2 or MD-2s as described in the examples herein. Cells were left untreated or stimulated with LPS for 24 h. Mean relative stimulation of luciferase activity±S.D. for a representative experiment, each performed in triplicate, is shown. (B) HEK-293 cells stably transfected with TLR4 and a NF-κB reporter gene were transiently transfected with plasmids encoding for either MD-2, MD-2s or CD14 as shown. 24 h later, cells were left untreated or stimulated with LPS (250 ng/ml) for 6 h. Mean relative stimulation of luciferase activity±SD for a representative experiment, each performed in triplicate, is shown. (C) and (D) Supernatants were also collected and measured for IL-8 secretion.
(A) HEK293 cells were transiently transfected with plasmids encoding TLR4 and a NF-κB reporter gene in combination with MD-2 and MD-2s as indicated. 24 h later, cells were left untreated or incubated with LPS (250 ng/ml) for 5 h. Mean relative stimulation of luciferase activity±S.D. for a representative experiment from three separate experiments, each performed in triplicate, is shown. (B) HEK-293 cells stably transfected with TLR4 and a NF-κB reporter gene were treated with supernatants containing either MD-2 and MD-2s as depicted and left untreated or incubated with LPS for 24 h. Mean relative stimulation of luciferase activity±S.D. for a representative experiment from three separate experiments, each performed in triplicate, is shown.
HEK293 cells were transiently transfected with the expression vectors noted in combination with constructs encoding the NF-κB- and IL-8-luciferase reporter gene, and either the β-galactosidase gene or the phRL-TK report gene to normalize for transfection efficiency. In all cases, total DNA concentration was kept constant by supplementation with empty vector control. Following overnight incubation, cells were stimulated for 6 hours with 50 ng/ml LPS and then lysed, and luciferase activity was measured as described previously (Ohta et al. (2004) BIOCHEM BIOPHYS RES COMMUN 323, 1103-1108). Data are shown as mean±SD of three or more independent experiments and are reported as a percentage of LPS-stimulated NF-κB and IL-8 promoter activity, or relative luciferase activity.
The requirement for MD-2s in LPS mediated NF-κB activation was assessed. It has been shown that the soluble form of wild-type MD-2 confers LPS responsiveness to cells expressing TLR4; therefore, it was investigated if soluble MD-2s was also bioactive. Culture supernatants were obtained from HEK293 cells transiently expressing control vector, MD-2, or MD-2s, and incubated with HEK293 cells stably transfected with TLR4 and an NF-κB-dependent luciferase reporter gene.
MD-2s was tested to see if it needed to be transiently expressed in TLR4 reporter cells in order to mediate NF-κB activation following LPS stimulation. HEK293 cells stably transfected with TLR4 and an NF-κB-dependent luciferase reporter gene were transiently transfected with plasmids encoding CD14 in combination with either MD-2 or MD-2s, and subsequently treated with LPS.
HEK293 cells were transiently transfected with plasmids encoding CD14, TLR4, and wild-type MD-2 in conjunction with a plasmid encoding the NF-κB-dependent luciferase reporter gene in the presence or absence of a plasmid encoding MD-2s. […] Furthermore, we assessed the inhibitory role of soluble MD-2s following LPS stimulation. HEK293 cells stably transfected with TLR4 and an NF-κB-dependent luciferase reporter gene were incubated with supernatants obtained from HEK293 cells transiently expressing a constant amount of MD-2 with increasing concentrations of MD-2s.

Molecule	Effect on LPS-induced MD-2 tyrosine phosphorylation [1]	Ability to activate NF-κB upon LPS stimulation compared to wild-type MD-2 [2]	Decrease in NF-κB activity upon LPS stimulation [2] [%]
C=C1[C@@H](C)[C@H]2[C@H](Cc3ccccc3)NC(=O)[C@]23[C@H](OC(C)=O)/C=C/[C@@](C)(O)C(=O)[C@@H](C)C/C=C/[C@H]3[C@@H]1O [cytochalasin D]	significantly inhibited	–	–
CO[C@H]1[C@@H](OC)C[C@H](C)[C@@H](OC)C2=CC(=O)C=C(NC(=O)/C(C)=C/C=C\[C@H](OC)[C@@H](OC(N)=O)/C(C)=C/[C@@H]1C)C2=O [herbimycin A]	significantly inhibited	–	–
MD-2-Y22F: human MD-2 with tyrosine 22 mutated to phenylalanine (protein, Tyrosine to phenylalanine mutation at position 22 of human MD-2, human MD-2 with tyrosine 22 mutated to phenylalanine) MLPFLFFSTLFSSIFTEAQKQFWVCNSSDASISYTYCDKMQYPISINVNPCIELKRSKGLLHIFYIPRRDLKQLYFNLYITVNTMNLPKRKEVICRGSDDDYSFCRALKGETVNTTISFSFKGIKFSKGKYKCVVEAISGSPEEMLFCLEFVILHQPNSN	–	significantly less potent	50
MD-2-Y131F: human MD-2 with tyrosine 131 mutated to phenylalanine (protein, Tyrosine to phenylalanine mutation at position 131 of human MD-2, human MD-2 with tyrosine 131 mutated to phenylalanine) MLPFLFFSTLFSSIFTEAQKQYWVCNSSDASISYTYCDKMQYPISINVNPCIELKRSKGLLHIFYIPRRDLKQLYFNLYITVNTMNLPKRKEVICRGSDDDYSFCRALKGETVNTTISFSFKGIKFSKGKFKCVVEAISGSPEEMLFCLEFVILHQPNSN	–	significantly less potent	50
MD-2-Y22FY131F: human MD-2 double mutant, tyrosines 22 and 131 mutated to phenylalanine (protein, Tyrosine to phenylalanine mutation at position 22 and 131 of human MD-2, human MD-2 double mutant, tyrosines 22 and 131 mutated to phenylalanine) MLPFLFFSTLFSSIFTEAQKQFWVCNSSDASISYTYCDKMQYPISINVNPCIELKRSKGLLHIFYIPRRDLKQLYFNLYITVNTMNLPKRKEVICRGSDDDYSFCRALKGETVNTTISFSFKGIKFSKGKFKCVVEAISGSPEEMLFCLEFVILHQPNSN	–	do not activate NF-κB as strongly as wild-type MD-2	–
